T1: human ADAMTS13 (human, UniProt Q76LX8 75-1427)
T1 construct: ELISA: full-length recombinant ADAMTS13 coated on plates (Technoclone); Activity assays: endogenous ADAMTS13 of normal human plasma; also called full-length human recombinant ADAMTS13; VWF-cleaving protease
T1 sequence (looked up): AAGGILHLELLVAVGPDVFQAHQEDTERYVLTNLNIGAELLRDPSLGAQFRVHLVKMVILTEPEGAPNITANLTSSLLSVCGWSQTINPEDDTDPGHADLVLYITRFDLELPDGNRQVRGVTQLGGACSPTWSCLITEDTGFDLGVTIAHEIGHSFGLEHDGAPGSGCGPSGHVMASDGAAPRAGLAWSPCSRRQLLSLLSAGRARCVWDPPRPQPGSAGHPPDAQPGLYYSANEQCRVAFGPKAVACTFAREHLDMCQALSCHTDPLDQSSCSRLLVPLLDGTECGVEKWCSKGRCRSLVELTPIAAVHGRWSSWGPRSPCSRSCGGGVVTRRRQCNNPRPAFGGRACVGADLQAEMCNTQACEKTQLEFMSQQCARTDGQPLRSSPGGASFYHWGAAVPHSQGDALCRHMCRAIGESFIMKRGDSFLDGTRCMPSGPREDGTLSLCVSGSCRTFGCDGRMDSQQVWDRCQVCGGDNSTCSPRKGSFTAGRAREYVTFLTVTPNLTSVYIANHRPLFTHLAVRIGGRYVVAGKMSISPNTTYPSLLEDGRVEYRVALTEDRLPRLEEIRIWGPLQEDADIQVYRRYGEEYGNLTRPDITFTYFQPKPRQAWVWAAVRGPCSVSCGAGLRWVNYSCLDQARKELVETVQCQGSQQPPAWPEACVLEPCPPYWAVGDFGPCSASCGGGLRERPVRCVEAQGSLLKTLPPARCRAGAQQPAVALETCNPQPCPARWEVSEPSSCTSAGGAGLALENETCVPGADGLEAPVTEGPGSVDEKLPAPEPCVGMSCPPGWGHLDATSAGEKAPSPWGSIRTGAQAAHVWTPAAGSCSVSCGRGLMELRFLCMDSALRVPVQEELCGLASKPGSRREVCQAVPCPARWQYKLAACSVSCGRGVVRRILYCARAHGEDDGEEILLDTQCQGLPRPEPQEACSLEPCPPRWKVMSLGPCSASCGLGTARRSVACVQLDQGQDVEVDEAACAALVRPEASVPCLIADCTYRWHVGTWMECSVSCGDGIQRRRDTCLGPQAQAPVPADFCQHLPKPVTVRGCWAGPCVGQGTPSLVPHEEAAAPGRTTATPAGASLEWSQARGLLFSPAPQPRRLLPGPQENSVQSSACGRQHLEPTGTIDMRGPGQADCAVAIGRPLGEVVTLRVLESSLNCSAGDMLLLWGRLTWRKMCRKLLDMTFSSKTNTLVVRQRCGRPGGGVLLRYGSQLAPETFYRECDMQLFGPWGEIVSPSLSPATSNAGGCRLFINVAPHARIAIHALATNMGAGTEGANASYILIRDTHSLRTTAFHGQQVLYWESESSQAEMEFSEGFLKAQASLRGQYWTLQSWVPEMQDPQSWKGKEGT


Columns and labels:
human ADAMTS13 = target: T1, human ADAMTS13; test: phage ELISA on ADAMTS13-coated plates (positive: >10-fold absorbance above background)
[1] = target: T2, hemagglutinin ectodomain of influenza virus H1/PR/8/34 (influenza virus H1/PR/8/34, UniProt P03452 18-528); test: immunoassay or flow cytometry
T2 construct: extracellular domain; also called HA H1/PR/8/34
T2 sequence (P03452 18-528): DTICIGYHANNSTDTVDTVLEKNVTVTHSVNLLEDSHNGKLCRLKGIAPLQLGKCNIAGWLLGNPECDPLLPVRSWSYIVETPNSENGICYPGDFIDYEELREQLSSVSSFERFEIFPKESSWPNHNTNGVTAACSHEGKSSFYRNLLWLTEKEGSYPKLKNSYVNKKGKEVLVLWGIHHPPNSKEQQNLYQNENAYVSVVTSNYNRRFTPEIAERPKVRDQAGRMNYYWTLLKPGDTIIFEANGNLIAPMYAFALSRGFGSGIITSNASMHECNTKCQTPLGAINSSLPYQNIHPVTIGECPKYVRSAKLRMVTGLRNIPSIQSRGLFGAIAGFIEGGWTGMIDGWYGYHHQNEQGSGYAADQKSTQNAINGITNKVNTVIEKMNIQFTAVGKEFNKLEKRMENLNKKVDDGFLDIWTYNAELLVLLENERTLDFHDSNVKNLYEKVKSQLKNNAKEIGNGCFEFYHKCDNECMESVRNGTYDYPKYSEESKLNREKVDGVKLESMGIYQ

Row | Binder | binding result (human ADAMTS13) | binding result [1]
1 | scFv 1-403 (scFv, V domains shown) VH: QVQLQESGGGVVQPGRSLRLSCAASGFTFRNYAMHWVRQAPGKGLEWVAVISYDGGKEYYADSVKGRFTISRDNSKNTLYLQMNSLRAEDTAVYYCARDTFSYYDFWRAFDYWGQGTLVTVSS VL: ELVMTQSPSSLSASVGDTVTITCRASQSLRGYLNWYQQKPGEAPKLLIYAASTLRAGVPPRFSGAGYETDFSLTISNLQLEDFATYYCQQSHNVPLTFGGGTKVEIK | binds | –
2 | scFv 3-302 (scFv, V domains shown) VH: QVQLVQSGAEVKRPGSSVKVSCKASGNTFSNYHINWVRQAPGQGLQWMGGIIPILGRTNYAQNFQGRVTITTDESTNTAYMELTSLRSEDTAVYYCAREARDSFDFWGQGTMVTVSS VL: ELVLTQPPSVSVSPGQTASITCSGDKLGHTYTSWYQQKPGQSPVLVIYQDNRRPSGLPERFSGSNSGNTATLTISRVEAGDEADYYCQVWESSSDHLVFGGGTELTVL | binds | no binding
3 | scFv 4-303 (scFv, V domains shown) VH: QVQLVQSGAEVKKPGSSVKVSCKASGGTFSNYGISWVRQAPGQGLEWMGKIIPILGITNYAQKFQGRVTITADKSTSTAYMELSSLRSEDTAVYYCARGGGSYDFFDYWGQGTLVTVSS VL: ELELTQPPSVSVAPGKAARLSCGGEDIGIKSVHWYQQKTGRAPVLVIYNDDDRPSGIPERFAGSNSGNTATLTISRVEAGDEADYYCEVWDSLTDRVVFGGGTKLTVL | binds | –
4 | scFv 1-303 (scFv, V domains shown) VH: QVQLVQSGAEVKKFGSSVKVSCKASGGTFSSYTMSWVRQAPGQGLEWMGSFIPILERANYAQKFQGRVTLTADKSTSTAYMELGSLRSEDTAVYYCARDLGDFGDSWGQGTLVTVSS VL: ELELTQPPSVSVAPGKTARITCGGNNIGSKSVHWYQQKPGQAPVLVVYDDSDRPSGIPERFSGSNSGNTATLTISRVEAGDEADYYCQVWDSSSDHYVFGTGTKVTVL | binds | no binding
5 | scFv 1-434 (scFv, V domains shown) VH: QVQLVQSGAEVKKPGSSVKVSCKASGGSFSDYTIIWLRQARGHGLEWMGKIVPILGVTTYAQEFQGRITITADRSTSTAYMELSSLRSEDTAVYYCARFLWGLDVWGQGTTVTVSS VL: ELVLTQPPSVSVAPGQTARITCGGNNIGSKSVHWYQQKPGQAPVLVVYDDSDRPSGIPERFSGSNSGNTATLTISRVEAGDEADYYCQVWDSSSDHVVFGGGTELTVL | binds | no binding
6 | scFv 1-406 (scFv, V domains shown) VH: QVQLVQSGAEVKKFGSSVKVSCKASGGMFSSYTISWVRQGPGQGLEWMGSFIPILERANYAQKFQGRVSFTADKSTSTAYMELGSLTSEDTAVYFCARDVGDFGDSWGQGTLVTVSS VL: ELELTQPPSVSVFPGQTARITCSGDTLPKQYGNWYQQKPGQAPVVVIYKDTERPSGIPERFSGSSSGTTATLTISGVQAEDEADYYCQSADSNDWVLFGGGTKLTVL | binds | –
7 | scFv 1-438 (scFv, V domains shown) VH: QVQLVQSGAEVKKPGSSVKVSCKASGGTFSNYDITWVRQAPGQGLEWVGKVIPILDVTNYAQKFQGRVTITADKSTSTAYMELSNLTSEDTAVYFCARFLWGLDVWGQGTMVTVSS VL: ELVLTQPPSVSVAPGQTARITCGGNNIGSKSVHWYQQKPGQAPVLVVYDDSDRPSGIPERFSGSNSGNTATLTISRVEAGDEADYYCQVWDSSSDHKVFGGGTELTVL | binds | no binding
8 | scFv 3-305 (scFv, V domains shown) VH: QVQLVQSGAEVKRPGSSVKVSCKASGNTFSNYHINWVRQAPGQGLQWMGGIIPILGRTNYAQNFQGRVTITTDESTNTAYMELTSLRSEDTAVYYCAREARDSFDFWGQGTMVTVSS VL: ELVLTQPPSVSVAPGKTARITCGGNNIGSKSVHWYQQKPGQAPVLVVYDDSDRPSGIPERFSGSNSGNTATLTISRVEAGDEADYYCQVWDSSSDHWVFGGGTQLTVL | binds | –
9 | scFv 2-102 (scFv, V domains shown) VH: QVQLVQSGAEVKKPGSSVKVSCRASGGTFSSYTINWVRQAPGQGLEWMGRVVPILGVTNYAQKFQGRVTITADKSTSTAYMELSSLRSEDTAVYYCARDKGYDNNYGAYWGQGTLVTVSS VL: ELVVTQPPSVSVAPGQTARITCGGNNIGSINVHWYQQKPGQAPVLVVYDDSARPSGIPERFSGSNSGNTATLTISRVEAGDEADYYCQVWDSRSDYWVFGGGTKVTVL | – | no binding
10 | scFv 4-307 (scFv, V domains shown) VH: QVQLVQSGAEVKKPGSSVKVSCKASGGTFSTYTINWMRQAPGQGLEWMGRIIPMFGTANYAQKFRGRVTITADESTSTAYMELSSLISEDTAIYYCARSGYSDAFDIWGQGTMVTVSS VL: ELVLTQPPSVSVAPGTTARITCGGNNIGSKSVHWYQQKPGQAPVLVIYYDSDRPSGIPERFSGSNSGNTATLTISRVEAGDEADYYCQVWDSSSDQGVFGGGTQLTVL | binds | –
11 | scFv 2-103 (scFv, V domains shown) VH: QVQLVQSGAEVKKPGSSVKVSCKASGGTFSSYDINWVRQAPGQGLEWMGSIIPILGISNYAQKFQGRVTITADKSTSTAYMELSSLRSEDTAVYYCARDQGYANNYGAYWGQGTLVTVSS VL: ELVLTQPPSVSVAPGQTARITCGGNNIGSKSVHWYQQKPGQAPVVVVYDDSDRPSGIPERFSGSNSGNTATLTISRVEAGDEADYYCQVWDSSSDHWVFGGGTELTVL | – | no binding
12 | scFv z1-303 (scFv, V domains shown) VH: QVQLQESGPGLVRPSQTLSLTCAISGDSVSNNNAAWNWIRQSPSRGLEWLGRTFYRSRWYNDYAVSVKSRIIINPDTSKNQFSLDLTSVTPEDTAVYFCAREGQWLPNYFDPWGQGTLVTVSS VL: ELVLTQPPSVSVAPGQTARITCGGNNIGSKSVHWYQQKPGQAPVLVVYDDSDRPSGIPERFSGSNSGNTATLTISGVEVGDEADYYCQVWDSSRDHVVFGGGTELTVL | binds | –
13 | scFv 2-301 (scFv, V domains shown) VH: QVQLVQSGAEVKKPGSSVKVSCKASGGTFSSYAISWVRQAPGQGLEWMGGITPILGVTNYSQKFQGRVTVTADISTTTAYMELSSLTSEDTAVYYCARDQGYANDYGAYWGQGTLVTVSS VL: ELVLTQPPSVSVAPGQTARIICGGNNIGSKTVHWYQQKPGQAPVLVVYDDSDRPSGIPERFSGSNSGNTAALTISRVEAGDEADYYCQVWHSSSDHWVFGGGTKVTVL | binds | –
14 | scFv 2-207 (scFv, V domains shown) VH: QVQLVQSGAEVKKPGSSVKVSCKASGGTFSSYAISWVRQAPGQGLEWMGGITPILGVTNYSQKFQGRVTVTADISTTTAYMELSSLTSEDTAVYYCARDQGYANDYGAYWGQGTLVTVSS VL: ELVLTQPPSVSVAPGQTARITCGGNNIGSKSVHWYQQKPGQAPVLVVHDDSDRPSGIPERFSGSNSGNTATLTIGRVGAGDEADYYCQVWDSSSDHWVFGGGTQLTVL | binds | –
15 | scFv 2-302 (scFv, V domains shown) VH: EVQLVQSGAEVKKPGSSVKVSCKASGGTFSSYTINWVRQAPGQGLEWMGRIIPILGIENYAQKFQGRVTISADKSTSTAYMELSSLRSDDTAVYYCARDQVFGAYWGPGTLVTVSS VL: ELVLTQPPSVSVAPGQTAIITCGGSNIGTKSVHWYQQKSGQAPVLVVHDDAHRPSGIPERFSGSNSGNTATLTISRVEAGDEADYYCQVWESSSDHWVFGGGTKVTVL | binds | –
16 | scFv 3-301 (scFv, V domains shown) VH: EVQLVQSGAEVKKPGSSVKVSCKASGGTFSSYAISWVRQAPGQGLEWMGGIIPILGITNYAQKFQGRVTITADESTGAAYMELSSLASEDTAVYYCARDDTGRDDYFEYWGQGTLVTVSS VL: ELVLTQPPSVSVSPGQTARITCSGDALPKQYAYWYQQKPGQAPVLVIYKDSERPSGIPERFSGSSSGTTVTLTISGVQAEDEADYYCQSADSNGTYKVFGGGTELTVL | – | no binding

Source: patent publication US20190031771A1 (University of Pennsylvania, published 2019)
